# Laboratory results from patent US20100015126A1, “Methods of Binding of Cross-Beta Structures By Chaperones” (priority 2006, published 2010).
# Target: T1, human mitochondrial HSP60 (Homo sapiens, UniProt P10809)
# T1 construct: Dr. W. van Eden, Utrecht University; host or cells: E. coli
# Experiment: ELISA: binding of HSP60 to immobilized (misfolded) protein ligands
# Method: Recombinant human HSP60 with N-terminal His-tag was a kind gift of Dr. R. van der Zee and Prof. Dr. W. van Eden (Institute of Infectious Diseases and Immunology, Faculty of Veterinary Medicine, Utrecht University, Utrecht, The Netherlands), and was supplied in lyophilized form. The HSP60 was produced in E. coli and purified using Nickel-Sepharose. The HSP60 was lyophilized from 20-40 mM ammonium-bicarbonate solution, after purification, and stored at −20° C. The construct lacks the mitochondrial signal sequence. […] Before use, the lyophilized protein is dissolved at room temperature at 1 mg/ml in 20-40 mM NH4HCO3, resulting in a pH of 7.0. Aliquots are stored at −20° C. or −80° C. The mitochondrial HSP60 is a functional dimer of heptamers (MW(HSP60 monomer)=˜58 kDa), and is involved in multimer protein assembling and aids in transport of unfolded proteins across membranes. For the binding studies, at two occasions separate HSP60 solutions were prepared originating from the same batch of purified protein, lyophilized in separate Eppendorf cups.
# Binding of chaperones to immobilized (misfolded) protein ligands was determined using an enzyme linked immuno sorbent assay (ELISA) approach. For this purpose 50 μl/well of potential ligands at indicated concentrations or coat buffer only for control and background measurement purposes, were coated overnight at 4° C. or coated for 1 h at room temperature, with motion, in 50 mM NaHCO3 pH 9.6 (coat buffer). In general, ligands were coated at 5 μg/ml, unless stated otherwise. For example, BiP binding peptides 6BB# and oxLDL were coated at 50 μg/ml. Native haemoglobin (Sigma-Aldrich, H7379), albumin, IgIV Gammagard and ovalbumin controls were prepared from lyophilized stocks. The controls were prepared by dissolving lyophilized proteins at 1 mg/ml in PBS upon resuspending by pipetting, followed by a 30 minutes period at the roller device, at room temperature. The protein solutions were centrifuged for 10 minutes at 16,000*g and diluted in coat buffer. After coating the plates were washed at least three times with 50 mM Tris-HCl pH 7.3, 150 mM NaCl, 0.1% v/v Tween20, and blocked with Blocking reagent (Roche Diagnostics, Almere, The Netherlands; 11112589001), for 1 h at room temperature, with motion. Plates were washed three times and incubated in triplicate with indicated chaperone dilution series, at 50 μl/well, for 1 h at room temperature, with constant motion. For HSP90, 5 mM DTT is incorporated in the binding buffer (PBS/0.1% Tween20) to avoid unwanted disulfide bond formation of the HSP90. Plates were washed three times and incubated with anti-FLAG antibody (mouse antibody, M2, peroxidase conjugate; Sigma, A-8592) for BiP-FLAG-His, anti-His-tag antibody (Mouse Monoclonal Antibody, Cat. No. 70796, Novagen [0.2 mg/ml]) for HSP60, a 1:1 mix of 500-fold diluted anti-HSP90beta antibodies (Stressgen, SPA-643 [mouse monoclonal IgM], SPA-646 [rabbit polyclonal]) for HSP90 and an anti-DnaK antibody (Stressgen, 023SPA-880D [mouse monoclonal antibody]) for DnaK. After four wash cycles, secondary antibodies were added to the wells when required, 50 μl/well, for 45′ at room temperature, with motion. RAMPO and SWARPO were used at 3000 times dilution. […] In a second experiment with more immobilized misfolded proteins and controls, the detection of bound HSP90 with the mix of two anti-HSP90 antibodies was achieved by mixing 1:1500 SWARPO with 1:3000 RAMPO. After 5 washes with wash buffer followed by two washes with PBS, binding of antibodies was assessed. Bound anti-FLAG-PO, peroxidase-conjugated rabbit anti-mouse immunoglobulins (RAMPO, P0260, DAKOCytomation, Glostrup, Denmark) or peroxidase-coupled swine anti-rabbit immunoglobulins (SWARPO, P0217, DAKOCytomation) was visualized with tetramethylbenzidine (TMB, #45.01.20,/#45.014.01, Biosource, Nivelles, Belgium). The reaction was stopped after 5 minutes with 1% H2SO4 in H2O. Plates were read at 450 nm. […]
# T1 sequence (P10809 27-573): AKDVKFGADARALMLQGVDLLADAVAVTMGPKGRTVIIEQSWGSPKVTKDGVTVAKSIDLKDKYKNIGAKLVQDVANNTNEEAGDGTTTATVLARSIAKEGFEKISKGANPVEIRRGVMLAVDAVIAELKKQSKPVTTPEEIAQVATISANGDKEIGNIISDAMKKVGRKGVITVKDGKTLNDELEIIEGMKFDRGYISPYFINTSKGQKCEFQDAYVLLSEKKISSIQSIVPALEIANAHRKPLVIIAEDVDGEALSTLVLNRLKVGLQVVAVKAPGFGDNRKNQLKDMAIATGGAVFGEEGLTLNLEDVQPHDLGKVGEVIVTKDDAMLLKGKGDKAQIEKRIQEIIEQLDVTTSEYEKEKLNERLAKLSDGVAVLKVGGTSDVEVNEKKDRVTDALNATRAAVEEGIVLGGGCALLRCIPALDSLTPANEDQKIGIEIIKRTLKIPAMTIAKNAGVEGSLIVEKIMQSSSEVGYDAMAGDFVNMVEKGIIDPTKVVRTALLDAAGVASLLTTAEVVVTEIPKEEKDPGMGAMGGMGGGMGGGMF
row,Substance,Binding of concentration series of HSP60 to coated ligand
1,BSA-AGE,has been established
2,"GSNKGAIIGLM [6BB6, Human Aβ (25-35)]",has been established
3,Hb: non-modified human haemoglobin control,did not bind
4,HbAGE: human haemoglobin glycated with glucose-6-phosphate for 75 weeks,has been established
5,"KLVFFAE [6BB12, Human Aβ16-22]",did not bind
6,native BSA: non-modified bovine serum albumin control,did not bind
